Experimental data: US20100311648A1 (AstraZeneca / MedImmune, published 2010)
Positions of bridges follow the written chain, without caps; N, C: chain ends. Non-standard residues stand in square brackets, D forms with d. dPhe(2-CF3) = N[C@H](Cc1ccccc1C(F)(F)F)C(=O)O; dPhe(3,5-F2) = N[C@H](Cc1cc(F)cc(F)c1)C(=O)O; dPhe(4-CN) = N#Cc1ccc(C[C@@H](N)C(=O)O)cc1; dPhe(2-Me) = Cc1ccccc1C[C@@H](N)C(=O)O; dPhe(4-F) = N[C@H](Cc1ccc(F)cc1)C(=O)O; Orn = NCCC[C@H](N)C(=O)O

B1: Ac-Arg-cyclo(Lys-Gln-D-Phe(4-CN)-Arg-Trp-Asp)-NH2 (peptide)
peptide: Ac-RKQ[dPhe(4-CN)]RWD-NH2
modifications: lactam 2-7
SMILES: CC(=O)N[C@@H](CCCNC(=N)N)C(=O)N[C@H]1CCCCNC(=O)C[C@@H](C(N)=O)NC(=O)[C@H](Cc2c[nH]c3ccccc23)NC(=O)[C@H](CCCNC(=N)N)NC(=O)[C@@H](Cc2ccc(C#N)cc2)NC(=O)[C@H](CCC(N)=O)NC1=O
notes: also called No. 93

target: T1, human melanocortin-4 receptor (human, UniProt P32245 1-332); test: cell-based or functional assay
T1 sequence (P32245 whole entry): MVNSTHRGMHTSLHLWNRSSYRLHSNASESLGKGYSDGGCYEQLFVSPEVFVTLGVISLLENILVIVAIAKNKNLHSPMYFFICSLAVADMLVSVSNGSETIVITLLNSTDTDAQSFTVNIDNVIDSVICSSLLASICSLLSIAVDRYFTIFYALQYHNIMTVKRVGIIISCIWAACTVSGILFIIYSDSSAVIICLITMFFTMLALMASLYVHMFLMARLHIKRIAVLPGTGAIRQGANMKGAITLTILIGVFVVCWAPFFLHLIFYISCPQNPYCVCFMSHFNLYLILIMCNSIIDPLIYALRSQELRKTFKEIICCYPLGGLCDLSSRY

Row | Binder | EC50, cAMP, 0.1 ng/mL Doxycycline | EC50, cAMP, 10 ng/mL Doxycycline | Intrinsic Activity, cAMP, 0.1 ng/mL Doxycycline | Intrinsic Activity, cAMP, 10 ng/mL Doxycycline
1 | Ac-R[Orn]N[dPhe(3,5-F2)]RWE-NH2 (lactam 2-7, also called No. 77) [Ac-Arg-cyclo(Orn-Asn-D-Phe(3,5-diF)-Arg-Trp-Glu)-NH2] | 3 nM | 0.155 nM | 34% | 80%
2 | Ac-REQ[dPhe(2-Me)]RW[Orn]-NH2 (lactam 2-7, also called No. 110) [Ac-Arg-cyclo(Glu-Gln-D-Phe(2-Me)-Arg-Trp-Orn)-NH2] | 0.6 nM | 0.06 nM | 84% | 105%
3 | Ac-R[Orn]N[dPhe(2-CF3)]RWE-NH2 (lactam 2-7) [Ac-Arg-cyclo(Orn-Asn-D-Phe(2-CF3)-Arg-Trp-Glu)-NH2] | 1 nM | 0.18 nM | 50% | 112%
4 | XDQXRWK (N-terminal Ac; D-Arg 1; D-Phe(4-F) 4; lactam Asp 2-Lys 7; C-terminal NH2, also called No. 83) [Ac-D-Arg-cyclo(Asp-Gln-D-Phe(4-F)-Arg-Trp-Lys)-NH2] | 0.75 nM | 0.075 nM | 78% | 94%
5 | RDPXRWK (N-terminal Ac; D-Phe(4-F) 4; lactam Asp 2-Lys 7; C-terminal NH2, also called No. 103) [Ac-Arg-cyclo(Asp-Pro-D-Phe(4-F)-Arg-Trp-Lys)-NH2] | 1 nM | 0.13 nM | 32% | 100%
6 | Ac-RDN[dPhe(4-CN)]RWK-NH2 (lactam 2-7, also called No. 89) [Ac-Arg-cyclo(Asp-Asn-D-Phe(4-CN)-Arg-Trp-Lys)-NH2] | – | 17 nM | 6% | 87%
7 | RDQXRWK (N-terminal Ac; D-Phe(4-CN) 4; lactam Asp 2-Lys 7; C-terminal NH2, also called No. 90) [Ac-Arg-cyclo(Asp-Gln-D-Phe(4-CN)-Arg-Trp-Lys)-NH2] | 4 nM | 0.283 nM | 31% | 96%
8 | RDPXRWK (N-terminal Ac; D-Phe(2-F) 4; lactam Asp 2-Lys 7; C-terminal NH2) [Ac-Arg-cyclo(Asp-Pro-D-Phe(2-F)-Arg-Trp-Lys)-NH2] | 191 nM | 10 nM | 16% | 100%
9 | Ac-REQ[dPhe(4-F)]RW[Orn]-NH2 (lactam 2-7, also called No. 92) [Ac-Arg-cyclo(Glu-Gln-D-Phe(4-F)-Arg-Trp-Orn)-NH2] | 0.1 nM | 0.04 nM | 81% | 89%
10 | Ac-R[Orn]N[dPhe(4-CN)]RWE-NH2 (lactam 2-7, also called No. 91) [Ac-Arg-cyclo(Orn-Asn-D-Phe(4-CN)-Arg-Trp-Glu)-NH2] | 1 nM | 0.265 nM | 18% | 96%
11 | B1 | 0.3 nM | 0.17 nM | 44% | 97%
12 | XDQXRWK (N-terminal Ac; D-Arg 1; D-Phe(4-CN) 4; lactam Asp 2-Lys 7; C-terminal NH2, also called No. 81) [Ac-D-Arg-cyclo(Asp-Gln-D-Phe(4-CN)-Arg-Trp-Lys)-NH2] | 4 nM | 0.45 nM | 23% | 85%

target: T2, melanocortin-1 receptor (mouse (B-16 melanoma cells); in some …, UniProt Q01727 1-315); test: [I125]-NDP-α-MSH competition, MC1-R membranes
T2 construct: whole, on cells; membrane homogenates; also called MC1-R; mouse B16 MC1-R
Procedure: (§1) A competitive inhibition binding assay was performed for exemplified peptides according to the invention using membrane homogenates prepared from HEK-293 cells that express recombinant hMC4-R, hMC3-R, or hMC5-R, and from B-16 mouse melanoma cells (containing endogenous MC1-R). In some instances, HEK-293 cells that express recombinant hMC1-R were employed. Assays were performed in 96 well GF/B Millipore multiscreen filtration plates (MAFB NOB10) pre-coated with 0.5% bovine serum albumin (Fraction V). […] After incubation for 60 minutes at 37° C., the assay mixture was filtered and the membranes washed three times with ice-cold buffer. Filters were dried and counted in a gamma counter for bound radioactivity. […] Each assay was conducted in triplicate and the actual mean values are described, with results less than 0% reported as 0%. Ki values for test peptides of the present invention were determined using Graph-Pad Prism® curve-fitting software.

T2 sequence (Q01727 whole entry): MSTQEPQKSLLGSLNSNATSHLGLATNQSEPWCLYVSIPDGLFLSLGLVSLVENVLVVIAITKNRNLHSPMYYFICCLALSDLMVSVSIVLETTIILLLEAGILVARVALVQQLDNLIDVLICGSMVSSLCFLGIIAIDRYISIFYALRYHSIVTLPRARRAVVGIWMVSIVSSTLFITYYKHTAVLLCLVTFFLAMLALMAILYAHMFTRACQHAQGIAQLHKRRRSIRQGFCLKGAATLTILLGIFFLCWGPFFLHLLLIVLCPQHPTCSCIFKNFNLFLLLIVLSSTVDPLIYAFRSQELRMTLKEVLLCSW

Row | Binder | Ki
13 | Ac-REQ[dPhe(2-Me)]RW[Orn]-NH2 (lactam 2-7, also called No. 110) [Ac-Arg-cyclo(Glu-Gln-D-Phe(2-Me)-Arg-Trp-Orn)-NH2] | 105 nM

target: T1, human melanocortin-4 receptor; test: [I125]-NDP-α-MSH competition, hMC4-R HEK-293 membranes
Procedure: as §1

Row | Binder | Ki
14 | Ac-R[Orn]N[dPhe(3,5-F2)]RWE-NH2 (lactam 2-7, also called No. 77) [Ac-Arg-cyclo(Orn-Asn-D-Phe(3,5-diF)-Arg-Trp-Glu)-NH2] | 8 nM
15 | Ac-R[Orn]N[dPhe(2-CF3)]RWE-NH2 (lactam 2-7) [Ac-Arg-cyclo(Orn-Asn-D-Phe(2-CF3)-Arg-Trp-Glu)-NH2] | 5 nM
16 | XDQXRWK (N-terminal Ac; D-Arg 1; D-Phe(4-F) 4; lactam Asp 2-Lys 7; C-terminal NH2, also called No. 83) [Ac-D-Arg-cyclo(Asp-Gln-D-Phe(4-F)-Arg-Trp-Lys)-NH2] | 6 nM
17 | RDPXRWK (N-terminal Ac; D-Phe(4-F) 4; lactam Asp 2-Lys 7; C-terminal NH2, also called No. 103) [Ac-Arg-cyclo(Asp-Pro-D-Phe(4-F)-Arg-Trp-Lys)-NH2] | 4 nM
18 | Ac-RDN[dPhe(4-CN)]RWK-NH2 (lactam 2-7, also called No. 89) [Ac-Arg-cyclo(Asp-Asn-D-Phe(4-CN)-Arg-Trp-Lys)-NH2] | 48 nM
19 | RDQXRWK (N-terminal Ac; D-Phe(4-CN) 4; lactam Asp 2-Lys 7; C-terminal NH2, also called No. 90) [Ac-Arg-cyclo(Asp-Gln-D-Phe(4-CN)-Arg-Trp-Lys)-NH2] | 5 nM
20 | RDPXRWK (N-terminal Ac; D-Phe(2-F) 4; lactam Asp 2-Lys 7; C-terminal NH2) [Ac-Arg-cyclo(Asp-Pro-D-Phe(2-F)-Arg-Trp-Lys)-NH2] | 78 nM
21 | Ac-REQ[dPhe(4-F)]RW[Orn]-NH2 (lactam 2-7, also called No. 92) [Ac-Arg-cyclo(Glu-Gln-D-Phe(4-F)-Arg-Trp-Orn)-NH2] | 2 nM
22 | Ac-R[Orn]N[dPhe(4-CN)]RWE-NH2 (lactam 2-7, also called No. 91) [Ac-Arg-cyclo(Orn-Asn-D-Phe(4-CN)-Arg-Trp-Glu)-NH2] | 4 nM
23 | B1 | 1 nM
24 | XDQXRWK (N-terminal Ac; D-Arg 1; D-Phe(4-CN) 4; lactam Asp 2-Lys 7; C-terminal NH2, also called No. 81) [Ac-D-Arg-cyclo(Asp-Gln-D-Phe(4-CN)-Arg-Trp-Lys)-NH2] | 13 nM
